From patent publication US10800813 (Bicycle, dated 2020) come the findings set out here.

Like-named read-outs stand apart in the source and are kept apart here. Numbered stars: 1 amine (or outer) side, 2 acyl side, 3 side chain; on linkers, the order of the positions; unused ones are H or OH. Bridge positions count the residues as written; N and C are the ends. Square brackets hold non-standard residues; d marks the D form. Ends that are not written are not given here. Ind = L-indoline-2-carboxylic acid, O=C([C@@H]1Cc2ccccc2N1[*:1])[*:2]; Bip = N[C@@H](Cc1ccc(-c2ccccc2)cc1)C(=O)O; Tpi = O=C(O)[C@@H]1Cc2c([nH]c3ccccc23)CN1; Dip = N[C@H](C(=O)O)C(c1ccccc1)c1ccccc1; TBMB = c1c(C[*:1])cc(C[*:3])cc1C[*:2]; Hyp = O=C(O)[C@@H]1C[C@@H](O)CN1; Tic = O=C(O)[C@@H]1Cc2ccccc2CN1; Cha = N[C@@H](CC1CCCCC1)C(=O)O; 4FluoPro = 4-fluoroproline; Pip = O=C(O)[C@@H]1CCCCN1; Aze = O=C(O)[C@@H]1CCN1; Aib = CC(C)(N)C(=O)O

Common to all, as to test: enzyme inhibition assay
The target of assay [1] is T1, human plasma Kallikrein (human, UniProt P03952 20-638, limits assumed).
T1 construct: also called hPK; human PK
T1 sequence (P03952 20-638 limits assumed): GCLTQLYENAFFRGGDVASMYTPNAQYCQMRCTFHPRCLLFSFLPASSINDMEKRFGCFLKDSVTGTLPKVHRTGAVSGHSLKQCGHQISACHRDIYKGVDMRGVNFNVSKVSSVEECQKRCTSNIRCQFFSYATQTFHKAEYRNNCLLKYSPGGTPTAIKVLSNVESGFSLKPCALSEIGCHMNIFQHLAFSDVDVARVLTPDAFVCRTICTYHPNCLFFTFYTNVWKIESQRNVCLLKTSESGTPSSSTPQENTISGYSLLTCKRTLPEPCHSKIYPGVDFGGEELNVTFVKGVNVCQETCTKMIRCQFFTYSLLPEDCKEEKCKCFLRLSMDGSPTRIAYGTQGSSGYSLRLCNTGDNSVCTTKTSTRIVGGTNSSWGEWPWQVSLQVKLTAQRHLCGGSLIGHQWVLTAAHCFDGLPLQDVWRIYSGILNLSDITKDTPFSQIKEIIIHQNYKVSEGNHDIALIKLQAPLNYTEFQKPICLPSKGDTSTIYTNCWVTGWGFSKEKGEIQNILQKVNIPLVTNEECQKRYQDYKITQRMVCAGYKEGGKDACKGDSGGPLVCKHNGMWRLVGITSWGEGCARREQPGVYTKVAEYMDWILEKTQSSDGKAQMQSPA

The target of assay [2] is T1, human plasma Kallikrein. The source holds these as a separate data set.
Assay [3] deals with T1, human plasma Kallikrein. This is another data set of the same source.
Assay [4] has as its target T2, Rat plasma Kallikrein (rat, UniProt P14272 391-638, limits assumed).
T2 construct: domain: catalytic domain; also called rPK; rat PK

In assay [5] the target is T1, human plasma Kallikrein. The source holds these as a separate data set.
Assay [6] concerns the target T1, human plasma Kallikrein. This is another data set of the same source.

For orientation: Ki means a dissociation constant, usually derived from enzyme kinetics or from competition with a known ligand. A word on the IC50: it is the point on the concentration scale where inhibition reaches its midpoint. Read a low IC50 as greater potency.

T2 sequence (P14272 391-638 limits assumed): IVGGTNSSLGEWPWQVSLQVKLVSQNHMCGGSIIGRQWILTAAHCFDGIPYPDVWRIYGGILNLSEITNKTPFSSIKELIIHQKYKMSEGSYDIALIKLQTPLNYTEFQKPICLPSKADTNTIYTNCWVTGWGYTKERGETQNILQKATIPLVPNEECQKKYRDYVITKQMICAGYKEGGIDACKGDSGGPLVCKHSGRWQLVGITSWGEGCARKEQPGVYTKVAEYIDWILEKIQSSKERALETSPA

B1: Ac-(06-34-18) Ind3 (peptide)
peptide: Ac-CSW[Ind]ARCLHQDLC-NH2
modifications: linker 1-7-13 via TBMB
SMILES: CC(=O)N[C@H]1CSCc2cc3cc(c2)CSC[C@H](NC(=O)[C@H](CCCNC(=N)N)NC(=O)[C@H](C)NC(=O)[C@@H]2Cc4ccccc4N2C(=O)[C@H](Cc2c[nH]c4ccccc24)NC(=O)[C@H](CO)NC1=O)C(=O)N[C@@H](CC(C)C)C(=O)N[C@@H](Cc1c[nH]cn1)C(=O)N[C@@H](CCC(N)=O)C(=O)N[C@@H](CC(=O)O)C(=O)N[C@@H](CC(C)C)C(=O)N[C@H](C(N)=O)CSC3
Turning to B1, the Ki in assay [1] is 1.35 nM.

B2: Ac-(06-34-18) NorHar3 (peptide)
peptide: Ac-CSW[Tpi]ARCLHQDLC-NH2
modifications: linker 1-7-13 via TBMB
SMILES: CC(=O)N[C@H]1CSCc2cc3cc(c2)CSC[C@H](NC(=O)[C@H](CCCNC(=N)N)NC(=O)[C@H](C)NC(=O)[C@@H]2Cc4c([nH]c5ccccc45)CN2C(=O)[C@H](Cc2c[nH]c4ccccc24)NC(=O)[C@H](CO)NC1=O)C(=O)N[C@@H](CC(C)C)C(=O)N[C@@H](Cc1c[nH]cn1)C(=O)N[C@@H](CCC(N)=O)C(=O)N[C@@H](CC(=O)O)C(=O)N[C@@H](CC(C)C)C(=O)N[C@H](C(N)=O)CSC3
On to B2, for which the Ki in assay [1] is 2.99 nM.

B3: Ac-(06-34-18) Scram 1 (peptide)
peptide: Ac-CPSAWRCLHQDLC-NH2
modifications: linker 1-7-13 via TBMB
SMILES: CC(=O)N[C@H]1CSCc2cc3cc(c2)CSC[C@H](NC(=O)[C@H](CCCNC(=N)N)NC(=O)[C@H](Cc2c[nH]c4ccccc24)NC(=O)[C@H](C)NC(=O)[C@H](CO)NC(=O)[C@@H]2CCCN2C1=O)C(=O)N[C@@H](CC(C)C)C(=O)N[C@@H](Cc1c[nH]cn1)C(=O)N[C@@H](CCC(N)=O)C(=O)N[C@@H](CC(=O)O)C(=O)N[C@@H](CC(C)C)C(=O)N[C@H](C(N)=O)CSC3
In assay [2], B3 yielded a Ki of 1090 nM. In other words, the single-digit micromolar range.

B4: Ac-(06-34-18) Cha2 (peptide)
peptide: Ac-CS[Cha]PARCLHQDLC-NH2
modifications: linker 1-7-13 via TBMB
SMILES: CC(=O)N[C@H]1CSCc2cc3cc(c2)CSC[C@H](NC(=O)[C@H](CCCNC(=N)N)NC(=O)[C@H](C)NC(=O)[C@@H]2CCCN2C(=O)[C@H](CC2CCCCC2)NC(=O)[C@H](CO)NC1=O)C(=O)N[C@@H](CC(C)C)C(=O)N[C@@H](Cc1c[nH]cn1)C(=O)N[C@@H](CCC(N)=O)C(=O)N[C@@H](CC(=O)O)C(=O)N[C@@H](CC(C)C)C(=O)N[C@H](C(N)=O)CSC3
In turn, B4 came in with a Ki in assay [3] of 4.7 nM. This lies in the single-digit nanomolar range.

B5: Ac-(06-34-18) 4,4,BPal2 (peptide)
peptide: Ac-CS[Bip]PARCLHQDLC-NH2
modifications: linker 1-7-13 via TBMB
SMILES: CC(=O)N[C@H]1CSCc2cc3cc(c2)CSC[C@H](NC(=O)[C@H](CCCNC(=N)N)NC(=O)[C@H](C)NC(=O)[C@@H]2CCCN2C(=O)[C@H](Cc2ccc(-c4ccccc4)cc2)NC(=O)[C@H](CO)NC1=O)C(=O)N[C@@H](CC(C)C)C(=O)N[C@@H](Cc1c[nH]cn1)C(=O)N[C@@H](CCC(N)=O)C(=O)N[C@@H](CC(=O)O)C(=O)N[C@@H](CC(C)C)C(=O)N[C@H](C(N)=O)CSC3
For the molecule B5, in assay [3], the Ki turned out to be 464 nM.

B6: Ac-(06-34-18) Aib3 (peptide)
peptide: Ac-CSW[Aib]ARCLHQDLC-NH2
modifications: linker 1-7-13 via TBMB
SMILES: CC(=O)N[C@H]1CSCc2cc3cc(c2)CSC[C@H](NC(=O)[C@H](CCCNC(=N)N)NC(=O)[C@H](C)NC(=O)C(C)(C)NC(=O)[C@H](Cc2c[nH]c4ccccc24)NC(=O)[C@H](CO)NC1=O)C(=O)N[C@@H](CC(C)C)C(=O)N[C@@H](Cc1c[nH]cn1)C(=O)N[C@@H](CCC(N)=O)C(=O)N[C@@H](CC(=O)O)C(=O)N[C@@H](CC(C)C)C(=O)N[C@H](C(N)=O)CSC3
In turn, B6 came in with a Ki in assay [1] of 1.2 nM.

B7: Ac-(06-34-18) HyP3 (peptide)
peptide: Ac-CSW[Hyp]ARCLHQDLC-NH2
modifications: linker 1-7-13 via TBMB
SMILES: CC(=O)N[C@H]1CSCc2cc3cc(c2)CSC[C@H](NC(=O)[C@H](CCCNC(=N)N)NC(=O)[C@H](C)NC(=O)[C@@H]2C[C@@H](O)CN2C(=O)[C@H](Cc2c[nH]c4ccccc24)NC(=O)[C@H](CO)NC1=O)C(=O)N[C@@H](CC(C)C)C(=O)N[C@@H](Cc1c[nH]cn1)C(=O)N[C@@H](CCC(N)=O)C(=O)N[C@@H](CC(=O)O)C(=O)N[C@@H](CC(C)C)C(=O)N[C@H](C(N)=O)CSC3
Consider B7, for which, in assay [1], the Ki stood at 0.41 nM. Compared with the last molecule, the Ki is about 2.9-fold lower.

B8: Ac-(06-34-18) 3,3-DPA2 (peptide)
peptide: Ac-CS[Dip]PARCLHQDLC-NH2
modifications: linker 1-7-13 via TBMB
SMILES: CC(=O)N[C@H]1CSCc2cc3cc(c2)CSC[C@H](NC(=O)[C@H](CCCNC(=N)N)NC(=O)[C@H](C)NC(=O)[C@@H]2CCCN2C(=O)[C@H](C(c2ccccc2)c2ccccc2)NC(=O)[C@H](CO)NC1=O)C(=O)N[C@@H](CC(C)C)C(=O)N[C@@H](Cc1c[nH]cn1)C(=O)N[C@@H](CCC(N)=O)C(=O)N[C@@H](CC(=O)O)C(=O)N[C@@H](CC(C)C)C(=O)N[C@H](C(N)=O)CSC3
On to B8, for which affinity in assay [3] was put at a Ki of 1.5 nM.

B9: 06-34-01 (peptide)
peptide: ACSWPARCVHQDLCA
modifications: linker 2-8-14 via TBMB; not fully specified (N-terminus, C-terminus)
With B9, the IC50 in assay [4] came out at 6.12 nM; in assay [5], 0.15 nM.

B10: 06-34-05 (peptide)
peptide: ACRWPARCLHQDLCA
modifications: linker 2-8-14 via TBMB; not fully specified (N-terminus, C-terminus)
As to B10, the IC50 came out at 0.62 nM in assay [4] and 0.076 nM in assay [5].

B11: 06-34-02 (peptide)
peptide: ACRWPARCTHQDLCA
modifications: linker 2-8-14 via TBMB; not fully specified (N-terminus, C-terminus)
On to B11, for which the IC50 in assay [4] is 1.09 nM; in assay [5], 0.16 nM.

B12: 06-34-04 (peptide)
peptide: ACRWPARCMHQDLCA
modifications: linker 2-8-14 via TBMB; not fully specified (N-terminus, C-terminus)
Consider B12, for which the IC50 in assay [4] was 0.56 nM; in assay [5] it was 0.075 nM.

B13: 06-34-19 (01 + 05 + R/K) (peptide)
peptide: ACSWPAKCLHQDLCA
modifications: linker 2-8-14 via TBMB
notes: also called WPAK peptide
For B13, the IC50 in assay [4] was found to be 4.67 nM.

B14: 06-34-03 (01 + 02) (peptide)
peptide: ACSWPARCTHQDLCA
modifications: linker 2-8-14 via TBMB; not fully specified (N-terminus, C-terminus)
For the molecule B14, the IC50 in assay [4] came out at 0.87 nM; in assay [5] it was 0.082 nM.

B15: 06-34-17 (01 + 04) (peptide)
peptide: ACSWPARCMHQDLCA
modifications: linker 2-8-14 via TBMB; not fully specified (N-terminus, C-terminus)
Regarding B15, the half-inhibitory concentration (IC50) amounted to 0.44 nM in assay [4] and 0.073 nM in assay [5].

B16: Ac-(06-34-18) NorHar2 (peptide)
peptide: Ac-CS[Tpi]PARCLHQDLC-NH2
modifications: linker 1-7-13 via TBMB
SMILES: CC(=O)N[C@H]1CSCc2cc3cc(c2)CSC[C@H](NC(=O)[C@H](CCCNC(=N)N)NC(=O)[C@H](C)NC(=O)[C@@H]2CCCN2C(=O)[C@@H]2Cc4c([nH]c5ccccc45)CN2C(=O)[C@H](CO)NC1=O)C(=O)N[C@@H](CC(C)C)C(=O)N[C@@H](Cc1c[nH]cn1)C(=O)N[C@@H](CCC(N)=O)C(=O)N[C@@H](CC(=O)O)C(=O)N[C@@H](CC(C)C)C(=O)N[C@H](C(N)=O)CSC3
As to B16, the affinity in assay [3], expressed as Ki, was 24 nM.

B17: Ac-(06-34-18) Tic3 (peptide)
peptide: Ac-CSW[Tic]ARCLHQDLC-NH2
modifications: linker 1-7-13 via TBMB
SMILES: CC(=O)N[C@H]1CSCc2cc3cc(c2)CSC[C@H](NC(=O)[C@H](CCCNC(=N)N)NC(=O)[C@H](C)NC(=O)[C@@H]2Cc4ccccc4CN2C(=O)[C@H](Cc2c[nH]c4ccccc24)NC(=O)[C@H](CO)NC1=O)C(=O)N[C@@H](CC(C)C)C(=O)N[C@@H](Cc1c[nH]cn1)C(=O)N[C@@H](CCC(N)=O)C(=O)N[C@@H](CC(=O)O)C(=O)N[C@@H](CC(C)C)C(=O)N[C@H](C(N)=O)CSC3
B17: the affinity in assay [1], expressed as Ki, was 13.5 nM.

B18: Ac-(06-34-18) Aze3 (peptide)
peptide: Ac-CSW[Aze]ARCLHQDLC-NH2
modifications: linker 1-7-13 via TBMB
SMILES: CC(=O)N[C@H]1CSCc2cc3cc(c2)CSC[C@H](NC(=O)[C@H](CCCNC(=N)N)NC(=O)[C@H](C)NC(=O)[C@@H]2CCN2C(=O)[C@H](Cc2c[nH]c4ccccc24)NC(=O)[C@H](CO)NC1=O)C(=O)N[C@@H](CC(C)C)C(=O)N[C@@H](Cc1c[nH]cn1)C(=O)N[C@@H](CCC(N)=O)C(=O)N[C@@H](CC(=O)O)C(=O)N[C@@H](CC(C)C)C(=O)N[C@H](C(N)=O)CSC3
notes: also called Ac-06-34-18(TMB)-NH2 Aze3
Molecule B18 came in with a Ki in assay [1] of 0.06 nM. Moreover, the “fold increase in affinity against wildtype” value in assay [6] came out at 3 fold.

B19: Ac-(06-34-18) 4FluoPro3 (peptide)
peptide: Ac-CSW[4FluoPro]ARCLHQDLC-NH2
modifications: linker 1-7-13 via TBMB
In the case of B19, the affinity in assay [1], expressed as Ki, was 0.24 nM.

B20: Ac-(06-34-18) Pip3 (peptide)
peptide: Ac-CSW[Pip]ARCLHQDLC-NH2
modifications: linker 1-7-13 via TBMB
SMILES: CC(=O)N[C@H]1CSCc2cc3cc(c2)CSC[C@H](NC(=O)[C@H](CCCNC(=N)N)NC(=O)[C@H](C)NC(=O)[C@@H]2CCCCN2C(=O)[C@H](Cc2c[nH]c4ccccc24)NC(=O)[C@H](CO)NC1=O)C(=O)N[C@@H](CC(C)C)C(=O)N[C@@H](Cc1c[nH]cn1)C(=O)N[C@@H](CCC(N)=O)C(=O)N[C@@H](CC(=O)O)C(=O)N[C@@H](CC(C)C)C(=O)N[C@H](C(N)=O)CSC3
For B20, the Ki in assay [1] was determined as 0.26 nM. This Ki and that of the molecule before are within 1.5-fold of each other.
